Assay results as given in patent US20090111098A1 (SHIONOGI, published 2009).
Blank lines part the entries; values can stand above or below the binder they belong to.

Legend:
[1] = biological target: T1, peptide GPPGPQG (region corresponding to amino acids 769 to 775 of human type 2 collagen) (human); experiment: property stated for the prepared monoclonal antibody
T1 construct: The immunogen carried an added N-terminal cysteine and was conjugated to BSA; The DELFIA screen was run as for 6G4
T1 peptide: GPPGPQG

[2] = biological target: T2, peptide GEPGDDAPS (region corresponding to amino acids 757 to 765 of human type 2 collagen) (human); experiment: as above
T2 construct: The immunogen carried an added C-terminal cysteine and was conjugated to KLH
T2 peptide: GEPGDDAPS

- binding result [1]: binds
B1: 2E6 antibody (monoclonal antibody produced by hybridoma TAG-2E6) (antibody, V domains shown)
VH: QVTLKESGPGILQPSQTLSLTCSFSGFSLSTYGMGVGWIRQPSGKGLEWLAHIWWNDNKYYNTTLKSRLTISKDTSNKQVFLKIASVDTADTATYYCARIERWDPWFAYWGQGTLVTVSA
VL: DVVMTQTPLSLPVSLGDQASISCRSSQSLVYSNGNTYFHWYLQKPGQSPKLLIYKVSNRFSGVPDRFSGSGSGTDFTLKISRVEAEDLGVYFCSQSTHVPLTFGAGTKLELKR
notes: Mouse monoclonal IgG2b (k), 150 kDa; also called XL665-labeled 2E6 antibody; FERM ABP-10482

- binding result [2]: binds
B2: 6G4 antibody (monoclonal antibody produced by hybridoma TAG-6G4) (antibody, IgG1, V domains shown)
VH: EVQLVESGGSLVQPGGSLKLSCAASGFTFNNYGMSWVRQIPDKRLELVATITGNGHSTYYPVSVRGRFTISRDNAKNTLYLQMSSLKSEDTAMYYCVRGYSNFAFWGQGTTLTVSS
VL: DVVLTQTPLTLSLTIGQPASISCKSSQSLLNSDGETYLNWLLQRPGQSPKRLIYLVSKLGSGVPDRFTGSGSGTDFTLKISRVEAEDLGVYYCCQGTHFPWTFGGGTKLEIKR
notes: Mouse monoclonal IgG1 (k), 150 kDa; also called cryptate-labeled 6G4 antibody; FERM ABP-10483
